# According to the supplement of paper PMC12764529:
# ± gives the half width of the 95% confidence interval.
# What was measured:
# [1] = folding stability dG unfold from chymotrypsin proteolysis; higher = more stable
# Summary of the method: (§1)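 Digests were run with trypsin and chymotrypsin at 11 concentrations in threefold dilutions, plus a no-protease condition, on designed mini-proteins in a PA-tagged cDNA display construct. The mini-proteins were under 80 residues, had no cysteine, and were kept only when AlphaFold2 dimer inter-PAE was above 15. After sequencing, Bayesian fitting of the counts gave K50, from which unfolding free energy was derived against a sequence-predicted unfolded-state K50 and a shared folded-state K50, per protease or combined.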
# [2] = folding stability dG unfold (combined trypsin and chymotrypsin); higher = more stable
# Summary of the method: as §1
# [3] = folding stability dG unfold from trypsin proteolysis; higher = more stable
# Summary of the method: as §1
Sequence,folding stability dG unfold [1],folding stability dG unfold [2],folding stability dG unfold [3]
SDKIIIPIYLPPGQDPDEIKNEIKWFARELWDKLGLPPNVKVEIEPRPYPEGYRRYMITIRLGGKEITIWSA [r9_776_TrROS],3.6 ± 0.053 kcal/mol,3.34 ± 0.22 kcal/mol,3.08 ± 0.1 kcal/mol
SAGGKVYYIEIPPELLEAFPDLVVEPVEQPEDFVVAPVFLSDKVLLVPIRVFSEDGKELFDFTLTSNPSAGG [r13_129_TrMRF],1.77 ± 0.024 kcal/mol,1.62 ± 0.037 kcal/mol,1.18 ± 0.027 kcal/mol
SAGGSAGGSAPLIELRPPEEPLFLPLENLLGRGIPLEELAKLLEKLTGRKVEPVKPGYIRTGSAGGSAGGSA [r18_7_TrMRF],-0.128 ± 0.25 kcal/mol,-0.161 ± 0.44 kcal/mol,-0.192 ± 0.38 kcal/mol
SAGGKKKAKAYIVEKTTEKEGLKYYKVLIELGGKPLVFVIKSTSLEEVEEAIKKLAEELGVEVEIVPGSAGG [r13_750_TrMRF],4.69 ± 0.089 kcal/mol,4.53 ± 0.08 kcal/mol,3.77 ± 0.1 kcal/mol
SAGGSAGGSMIDDIVEKLKIPPGTRIVFNDGEVKYFDNREDIKEWAKNGYPAEKLKNIVAFPESAGGSAGGS [r12_430_TrMRF],0.491 ± 0.1 kcal/mol,0.251 ± 0.12 kcal/mol,-0.276 ± 0.15 kcal/mol
SIYIMLPVPPGKPYKLSIEIEMPDNGRPYEYDGTFNPENGWVMFPVRFPDNGHPIPPEDFKVKVELEPPKSA [r9_928_TrROS],2.45 ± 0.14 kcal/mol,2.07 ± 0.23 kcal/mol,1.42 ± 0.072 kcal/mol
SAGGMKTYEYELELEGGGRLRIKITEDPNNPVYTVTFYSPEGKKLKTITIPANSIEEALKEAIELLKSAGGS [r16_158_JUSTAS],4.79 ± 0.12 kcal/mol,4.73 ± 0.18 kcal/mol,4.6 ± 0.29 kcal/mol
SAGGSAMKITLKTKDGKEIEIEVEEKTNENGEKYLVLKIKDKKTNKEYTIVMSKEELEELLKKLLSSAGGSA [r15_92_TrROS_Hall],5.48 ± 0.11 kcal/mol,5.55 ± 0.17 kcal/mol,4.33 ± 0.21 kcal/mol
SAGGSAGGMKVVVKFTVRPRDPDTDEAVPAELVLEFDSLEEALAAAEELAALPEGTEIEIEVLTSAGGSAGG [r6_999_TrMRF],1.76 ± 0.031 kcal/mol,1.96 ± 0.088 kcal/mol,2.2 ± 0.058 kcal/mol
SAGGMKIGVLLPKSIPPEKAEEFLKKLNPDLEVEYRPVEPGSLKDIPPEIEVIVLPADDDFALALVKPSAGG [r13_649_TrMRF],-0.401 ± 0.12 kcal/mol,0.00463 ± 0.11 kcal/mol,0.323 ± 0.044 kcal/mol
SAGDAVRIPIRFPNGMQIYSIEINPDENTIKIKIYDPNGYRKFEWTFPVKDPNGDPKLVGKIKFYMRPPSAG [r5_434_TrROS],2.61 ± 0.16 kcal/mol,2.31 ± 0.23 kcal/mol,2.01 ± 0.069 kcal/mol
SAGGSAKIEIERIEPRPVLVPRPDGSLVPVPEVEVELRIEGDPEKMEEEERKKIEALAEEIAKELGSAGGSA [r2_40_TrMRF],0.736 ± 0.056 kcal/mol,0.428 ± 0.16 kcal/mol,-0.508 ± 0.16 kcal/mol
SAETVTFRVGDVEIVARRLPDGYVVVTEKVPEEYPEAELVLSLVRVYPDGTVEVESRLYRIDPETGVIGSAG [r14_724_TrMRF],2.67 ± 0.053 kcal/mol,2.48 ± 0.17 kcal/mol,2.12 ± 0.049 kcal/mol
SAGGSAGGSAGGKVAIVTASPEKAKEIAKKAGIKDVIIIPKNKPELLGPNVDKVILVAEKSAGGSAGGSAGG [r7_381_TrMRF],-1.94 ± 0.33 kcal/mol,< -1 kcal/mol,-0.629 ± 0.066 kcal/mol
SAGGSAGGSMLVLHLPNGKEIPIPPGEFSEDTGVEDIAARIPPEVRRLRIYNEDGTEVEVPIDSAGGSAGGS [r20_161_TrMRF],0.479 ± 0.39 kcal/mol,0.32 ± 0.18 kcal/mol,0.00521 ± 0.4 kcal/mol
SAGGMKFELVARFDSKEAAEKAVEELVRELFPDFDVEVEVEVIEDPETGTFLAIATITLPLPGPEDLSAGGS [r8_17_TrMRF],4.18 ± 0.19 kcal/mol,4.19 ± 0.2 kcal/mol,4.31 ± 0.21 kcal/mol
SAGGSAGGSGSMLPITTVTPTPDGVWKITYELPDGSTRTITVPPDDLSLSGPPSSSGSSAALASAGGSAGGS [r20_194_JUSTAS],0.041 ± 0.31 kcal/mol,0.764 ± 0.15 kcal/mol,1.28 ± 0.091 kcal/mol
SAGGSAGGSAGKKVLVLSEDEIAELLGLSKEEIENMSEEEKEKLALELAKKLGIDEVIITSAGGSAGGSAGG [r11_80_TrROS_Hall],3.31 ± 0.094 kcal/mol,3.54 ± 0.055 kcal/mol,3.76 ± 0.11 kcal/mol
SAGGGHMVNVTLTGSSIEEIKKELEELAKKYGFVINPKKVEKLPGPKYKITLNIKAPDEVVELIKKKSAGGS [r8_357_JUSTAS],2.16 ± 0.053 kcal/mol,1.72 ± 0.13 kcal/mol,0.943 ± 0.044 kcal/mol
SAGGTVTTEEVDDATYITVTKPSGETLTITAPALPDDTYLVTVYDPKTGKSTTKTVSSLDEAIKLLGSAGGS [r8_230_JUSTAS],1.83 ± 0.019 kcal/mol,2.08 ± 0.098 kcal/mol,2.2 ± 0.076 kcal/mol
SAGGSAGGSKEFKVEEVGGRLYITFPDGTVVEVRFDKPVTFDLKTGKLYFPEGAEVEKRRLKESAGGSAGGS [r20_158_TrROS_Hall],1.19 ± 0.12 kcal/mol,0.905 ± 0.26 kcal/mol,0.0253 ± 0.24 kcal/mol

Sequence,folding stability dG unfold [1],folding stability dG unfold [2],folding stability dG unfold [3]
SAGGSAGGSAGGHMVMITITIPIKKGAEIKFGDWDIKVPPGEQIQITIMIPVPPPDDDKSAGGSAGGSAGGS [r10_949_TrROS],2.8 ± 0.21 kcal/mol,2.79 ± 0.3 kcal/mol,2.91 ± 0.16 kcal/mol
SDIKIENYERNPGNGMYMWTVKLPDDGKKIEIMYPPGGIYISVEHPGKKKMFPFKSWEDMLDQVKDLLKNSA [r9_527_TrROS],1.79 ± 0.23 kcal/mol,1.36 ± 0.26 kcal/mol,1.24 ± 0.045 kcal/mol
SATPYTFTLPDGYVIPAYKLPDGTVRVTAQYYDPVDRKPVGTYEATADPTDGTIELTFPNGDKATITLPDSA [r9_56_TrMRF],1.01 ± 0.1 kcal/mol,1.01 ± 0.09 kcal/mol,0.859 ± 0.051 kcal/mol
SAGMPLPAEELAERLAKEIEESTDYKVSIEEIKPEGEYVIIKVRVELPEKYKDKGYEEEEFVAIFPGDLSAG [r5_970_TrMRF],0.806 ± 0.16 kcal/mol,0.702 ± 0.25 kcal/mol,0.703 ± 0.073 kcal/mol
SAGGSAGNPKPVVLEVEVVLDIPPENPDVLRAQAEAVARALAKPGLRVEVLDYDPDKAAFTIRITGSAGGSA [r15_563_TrMRF],1.84 ± 0.064 kcal/mol,1.89 ± 0.077 kcal/mol,1.71 ± 0.039 kcal/mol
SAGGSKTIEVEIKVPPGMTPEEVAKKLAEELKKAGIEVKVVKVEYDEEKGTVRITLDDGSEVELKVSAGGSA [r2_242_TrROS_Hall],1.98 ± 0.1 kcal/mol,1.58 ± 0.39 kcal/mol,1.35 ± 0.093 kcal/mol
SSPMTVEELLERHPNLLVVRLPDGTVYLFDPEKETLYTVTPGTGEVTVTPLSLEELLALLPAAGHEVLPLSA [r9_721_JUSTAS],2.14 ± 0.092 kcal/mol,1.99 ± 0.11 kcal/mol,1.74 ± 0.1 kcal/mol
SGMTVTPVTHPNGQTLTLTFDPETGTVTVNRSPAISLEEVKAALEALIPSDRSVTVSTLPDGTAAVTLTASA [r9_933_JUSTAS],1.06 ± 0.1 kcal/mol,1.27 ± 0.059 kcal/mol,1.36 ± 0.04 kcal/mol
SAGGSAGGSAGGSSDIVVTSETLPGPTRLVRITIPEKGETIELTLPASESIEQAVALLLSAGGSAGGSAGGS [r4_393_JUSTAS],0.0828 ± 0.4 kcal/mol,0.381 ± 0.16 kcal/mol,0.253 ± 0.1 kcal/mol
SMKPGDWKWIMFRFPDAENMEITIPIPLPPGYRVWFFFMNGERHEIPAGQEIKFKMPPGEPMWMMIWIWKSA [r9_79_TrROS],4.7 ± 0.1 kcal/mol,4.06 ± 0.26 kcal/mol,3.66 ± 0.11 kcal/mol
SAGGSAGGSAVITLKPGETITITATITNADGSTVTITEVVRLPDGRLVVRVTNADGETYEFVLSAGGSAGGS [r12_31_TrROS_Hall],3.3 ± 0.12 kcal/mol,3.44 ± 0.089 kcal/mol,3.54 ± 0.16 kcal/mol
SAGGKIEVEPEVELYRTPDGRLVARPKPVKVKITLKLTITNENGEKKTIEVEADTPEEALAALKALSSAGGS [r8_440_TrROS_Hall],0.726 ± 0.2 kcal/mol,0.965 ± 0.14 kcal/mol,1.03 ± 0.053 kcal/mol
SAGGSKTVELEIEIDGKLIKIRVEENENGELTVRIEIYDKNGKKVKEIEIKVKSLEEALKALEKLLSAGGSA [r2_82_TrROS_Hall],3.22 ± 0.12 kcal/mol,3.22 ± 0.12 kcal/mol,3.21 ± 0.12 kcal/mol
SAGDNYREVEYTLKLKNPKGERKLKVKVYYPKGGMFIKIEWPDNGRKIDIPFKSPEDAEETIKDLLDKLSAG [r5_480_TrROS],2.25 ± 0.13 kcal/mol,2.13 ± 0.22 kcal/mol,1.71 ± 0.059 kcal/mol
SASLVPTEREFELPGGERLRVTTPLDPNSDTPTVTVEKFTEAPDGTVTSTTTTVPPSEVAAVLEALGLRSAG [r14_416_JUSTAS],0.147 ± 0.045 kcal/mol,0.423 ± 0.052 kcal/mol,0.664 ± 0.023 kcal/mol
SAGGSAGGRIEVDPEGATIKYEHNPNMMQIEIKYPGKKVQIMIPPDFMKQNPDMPIKDLVEWILSAGGSAGG [r6_369_TrROS],0.94 ± 0.089 kcal/mol,1.11 ± 0.23 kcal/mol,1.09 ± 0.081 kcal/mol
SAGGSAGKIEIPLPELGEVREEPVPDTVRIEVRFPDGRVLEATVLKDDTIEIREKGTGKLVATLPASAGGSA [r15_656_TrMRF],1.39 ± 0.043 kcal/mol,1.44 ± 0.12 kcal/mol,1.44 ± 0.058 kcal/mol
SAGGSAGMPKVRIPIEEDPENGNILIRVKMPNSGREHEYHIPGNLKEAKENFEDHFGFDITDVEIWSAGGSA [r15_101_TrROS],-0.984 ± 0.58 kcal/mol,-0.0816 ± 0.38 kcal/mol,0.364 ± 0.23 kcal/mol
SGKDTLILELVLEVDSEEQAQAIRDIFEALGYKVEVRVFPLPDGLIVFVRVEVPVPPPPPSLEDPELLAKSA [r9_863_TrMRF],2.75 ± 0.028 kcal/mol,2.57 ± 0.15 kcal/mol,1.92 ± 0.092 kcal/mol
SAGGSAGGSKKPKITITIEILVKNEDGKLYLFRIEIEINENGEISIKMEIFELKDIKPGDILLSAGGSAGGS [r12_38_TrROS_Hall],3.94 ± 0.13 kcal/mol,3.56 ± 0.38 kcal/mol,2.63 ± 0.19 kcal/mol
SAGGSAGGSAKPKVKIEVEERRVLTLDPETGELKEERVLVVRIEVEPGMSEEEAKKLLEELASAGGSAGGSA [r18_438_TrROS_Hall],2.66 ± 0.12 kcal/mol,2.27 ± 0.16 kcal/mol,1.7 ± 0.079 kcal/mol
